Laboratory results from article PMC7533053, “Improving transgene expression and CRISPR‐Cas9 efficiency with molecular engineering‐based molecules”.

How the values were obtained:
β-catenin [1] = biological target: T1, β-catenin (UniProt P35222 1-781); assay: SPR; KD shown only in figure; SPR Biacore X100, CM5 chip, protein immobilized by amine coupling; RNA injected 1.5 min at 5 μL/min, six concentrations 4.1 nM-1 μM; running buffer, pH and temperature not stated
β-catenin [2] = biological target: T1, β-catenin; assay: SPR; stronger than ANAM-β; KD shown only in figure; SPR Biacore X100, CM5 chip, protein immobilized by amine coupling; RNA injected 1.5 min at 5 μL/min, six concentrations 4.1 nM-1 μM; running buffer, pH and temperature not stated

T1 sequence (P35222 whole entry): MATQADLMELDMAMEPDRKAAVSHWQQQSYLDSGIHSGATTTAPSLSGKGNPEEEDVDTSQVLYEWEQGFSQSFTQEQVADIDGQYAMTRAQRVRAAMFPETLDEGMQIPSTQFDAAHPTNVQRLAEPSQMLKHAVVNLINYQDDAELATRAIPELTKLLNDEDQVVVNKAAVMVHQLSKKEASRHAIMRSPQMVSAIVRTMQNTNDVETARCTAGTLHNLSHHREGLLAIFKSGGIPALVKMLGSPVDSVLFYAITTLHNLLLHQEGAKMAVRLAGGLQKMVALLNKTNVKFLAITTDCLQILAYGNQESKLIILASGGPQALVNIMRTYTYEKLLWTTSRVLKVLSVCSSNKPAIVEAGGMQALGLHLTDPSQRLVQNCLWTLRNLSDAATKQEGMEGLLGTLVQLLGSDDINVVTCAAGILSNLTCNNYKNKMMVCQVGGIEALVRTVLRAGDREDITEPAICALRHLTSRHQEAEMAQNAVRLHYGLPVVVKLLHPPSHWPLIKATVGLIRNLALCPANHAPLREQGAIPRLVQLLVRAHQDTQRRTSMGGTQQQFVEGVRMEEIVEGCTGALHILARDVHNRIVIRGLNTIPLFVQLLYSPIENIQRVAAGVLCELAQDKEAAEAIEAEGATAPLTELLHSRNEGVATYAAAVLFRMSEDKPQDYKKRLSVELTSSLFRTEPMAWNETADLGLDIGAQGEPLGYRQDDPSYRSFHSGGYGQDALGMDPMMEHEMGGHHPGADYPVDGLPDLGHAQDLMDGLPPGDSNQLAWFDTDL

B1: ANAM-β (structured_RNA)
RNA: AGGCCGAUCUAUGGACGCUAUAGGCACACCGGAUACUUUAACGAUUGGCU
- binding result (β-catenin [1]): binds

B2: ANAM-2Sβ (structured_RNA)
RNA: GGGAGCGGCCGAUCUAUGGACGCUAUAGGCACACCGGAUACUUUAACGAUUGGCCGCCUGCUGCGGGCCGAUCUAUGGACGCUAUAGGCACACCGGAUACUUUAACGAUUGGCCCGCAGCAGUUCCC
- binding result (β-catenin [2]): binds
